Test results as given in patent US20250270318A1 (AB THERAPEUTICS, published 2025).

Assays:
[1] = biological target: T1, PD-L1 (endogenous, on RKO colon cancer cells) (human, UniProt Q9NZQ7 19-290); experiment: flow cytometry, antibody binding to PDL1+ RKO cells (MFI)
T1 construct: whole, on cells; also called cell-associated PD-L1; CD274
Protocol: (§1) 10⁵ cells (RKO, Jurkat TIGIT, and Jurkat LAG-3 for testing antibody binding to PD-L1, TIGIT, and LAG-3, respectively) per well were distributed in 0.1 ml medium to 96-well V-bottom plates. Supernatants were discarded after spinning down cells at 300 g, 5 min at room temperature. Cells were resuspended in […] of a serial dilution of antibodies and incubated for 1 h at room temperature. After incubation, cells were washed by adding 0.15 ml cell staining buffer (PBS containing 1% FBS and 0.1% NaN3) and centrifugation at 300 g, 5 min at room temperature. Supernatants were discarded and cells were washed one more time with 0.15 ml of staining buffer. Cells were subsequently resuspended in […] of secondary antibody (Alexa Fluor 647-conjugated AffiniPure Goat Anti-Human IgG, Fcγ Fragment Specific. Used at 1:500) and incubated at RT for 30 min. Cells were spun down after 0.15 ml cell staining buffer was added, resuspended in 0.12 ml of cell staining buffer, and analyzed by flow cytometry on a NovoCyte flow cytometer (Agilent).

[2] = biological target: T2, TIGIT (on TIGIT-transfected Jurkat cells) (UniProt Q495A1 22-244, limits assumed); experiment: competition flow cytometry: blocking of biotinylated CD155 binding to Jurkat TIGIT cells
T2 construct: whole, on cells; also called Jurkat TIGIT; cell-associated TIGIT
T2 sequence (looked up): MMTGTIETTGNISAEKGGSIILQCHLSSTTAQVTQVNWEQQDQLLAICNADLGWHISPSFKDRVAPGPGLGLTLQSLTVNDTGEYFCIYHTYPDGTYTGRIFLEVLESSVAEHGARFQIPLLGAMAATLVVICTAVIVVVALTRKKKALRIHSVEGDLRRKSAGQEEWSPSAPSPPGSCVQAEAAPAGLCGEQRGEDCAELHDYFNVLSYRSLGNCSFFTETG
Protocol: (§2) 10⁵ cells (RKO for PD-1/PD-L1 blocking, Raji for MHC-II/LAG-3 blocking, and Jurkat TIGIT for CD155/TIGIT blocking) were distributed per well in 0.1 ml medium to 96-well V-bottom plate in duplicate. Supernatants were discarded after spinning down cells at 300 g, 5 min at room temperature. […] After incubation, cells were washed by adding 0.15 ml cell staining buffer (PBS containing 1% FBS and 0.1% NaN3) and centrifugation at 300 g, 5 min at room temperature. Supernatants were discarded and cells were washed one more time with 0.15 ml of staining buffer. Cells were subsequently resuspended in […] of 1:500 Streptavidin-PE and incubated at RT for 30 min. Cells were spun down after 0.15 ml cell staining buffer was added, resuspended in 0.12 ml of cell staining buffer, and analyzed by flow cytometry on a NovoCyte flow cytometer (Agilent).

[3] = biological target: T2, TIGIT (on TIGIT-transfected Jurkat …); experiment: flow cytometry, antibody binding to Jurkat TIGIT cells (MFI), fluorescent anti-human IgG Fc secondary
Protocol: as §1

[4] = biological target: T2, TIGIT (on TIGIT-transfected Jurkat …); experiment: flow cytometry blocking assay: biotinylated CD155 binding to Jurkat TIGIT cells (MFI), streptavidin detection
Protocol: as §2

[5] = biological target: T3, LAG-3 (on LAG-3-transfected Jurkat cells) (UniProt P18627 23-525, limits assumed); experiment: flow cytometry, antibody binding to Jurkat LAG-3 cells (MFI)
T3 construct: whole, on cells; also called Jurkat LAG-3; cell-associated LAG-3
T3 sequence (looked up): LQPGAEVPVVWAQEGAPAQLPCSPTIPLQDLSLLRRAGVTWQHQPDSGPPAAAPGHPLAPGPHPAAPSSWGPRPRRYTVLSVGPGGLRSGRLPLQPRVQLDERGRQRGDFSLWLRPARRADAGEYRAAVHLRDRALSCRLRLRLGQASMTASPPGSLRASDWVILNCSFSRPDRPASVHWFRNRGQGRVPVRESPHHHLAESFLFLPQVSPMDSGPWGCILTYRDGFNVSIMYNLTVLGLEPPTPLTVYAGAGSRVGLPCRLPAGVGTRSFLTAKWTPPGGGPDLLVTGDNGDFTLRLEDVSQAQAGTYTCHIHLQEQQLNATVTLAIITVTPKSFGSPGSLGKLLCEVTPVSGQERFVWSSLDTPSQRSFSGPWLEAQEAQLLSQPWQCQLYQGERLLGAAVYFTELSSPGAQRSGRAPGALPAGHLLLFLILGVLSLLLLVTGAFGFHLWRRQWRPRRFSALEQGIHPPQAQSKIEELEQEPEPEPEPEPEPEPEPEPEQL
Protocol: as §1

T1 sequence (Q9NZQ7 19-290): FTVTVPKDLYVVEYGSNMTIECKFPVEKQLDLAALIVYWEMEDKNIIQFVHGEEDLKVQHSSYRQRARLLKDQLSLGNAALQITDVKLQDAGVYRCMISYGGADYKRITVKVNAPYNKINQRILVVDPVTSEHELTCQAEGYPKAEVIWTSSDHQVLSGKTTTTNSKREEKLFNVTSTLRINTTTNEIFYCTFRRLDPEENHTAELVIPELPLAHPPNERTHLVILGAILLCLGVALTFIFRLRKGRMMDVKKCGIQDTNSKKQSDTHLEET

B1: parental anti-TIGIT antibody (antibody, human IgG1, V domains shown)
VH: EVQLVESGGGLVQPGGSLRLSCAASSRTFSRYAMGWFRRAPGKEREFVASISWSGGGLEYAESVKGRFTISRDGSKNTVYLQMNSLAAEDTAVYYCAADPWGSLVNGAVRYEYWGQGTLVTVSS
notes: also called αTIGIT; ABT's parental anti-TIGIT antibody
**Q.** Does B1 bind [1]?
**A.** Result: no binding (tested: 100 nM)

**Q.** And the IC50 [2]?
**A.** The IC50 was ~2.5 nM.

**Q.** What about the EC50 [3] of the same binder?
**A.** Its EC50 is 5.64 nM.

**Q.** What about the IC50 [4] of the same binder?
**A.** Its IC50 is 2.65 nM.

B2: PD-L1/TIGIT BsAb (bispecific antibody, V domains shown)
V domain 1: EVQLVESGGGLVQPGGSLRLSCAASSRTFSRYAMGWFRRAPGKEREFVASISWSGGGLEYAESVKGRFTISRDGSKNTVYLQMNSLAAEDTAVYYCAADPWGSLVNGAVRYEYWGQGTLVTVSS
V domain 2: not shown
notes: also called PD-L1/TIGIT bispecific antibody; TIGIT/PD-L1 bispecific antibody; not shown: linker peptide
**Q.** Which results are given for B2?
**A.** binding result [5]: no binding (tested: 100 nM); IC50 [2]: ~0.3 nM; EC50 [3]: 1.59 nM; IC50 [4]: 0.37 nM

B3: tiragolumab (antibody, V domains shown)
VH: EVQLQQSGPGLVKPSQTLSLTCAISGDSVSSNSAAWNWIRQSPSRGLEWLGKTYYRFKWYSDYAVSVKGRITINPDTSKNQFSLQLNSVTPEDTAVFYCTRESTTYDLLAGPFDYWGQGTLVTVSS
VL: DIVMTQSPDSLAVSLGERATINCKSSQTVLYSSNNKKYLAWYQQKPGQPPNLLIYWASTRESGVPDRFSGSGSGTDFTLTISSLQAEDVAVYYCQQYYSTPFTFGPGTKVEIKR
**Q.** B3 was tested. Which IC50 [2] did it give?
**A.** The IC50 was ~0.3 nM.

**Q.** What about the EC50 [3] of the same binder?
**A.** Its EC50 is 0.31 nM.

**Q.** And the IC50 [4]?
**A.** The IC50 was 0.29 nM.
